Results taken from US10864269B2, “Therapeutic combinations comprising anti-CD73 antibodies and uses thereof” (MedImmune Limited, priority 2014, dated 2020).

What was measured:
[1] = biological target: T1, Murine CD73 ECD (Mus musculus, UniProt Q61503); experiment: Surface plasmon resonance (ProteOn), murine CD73; type: binding; conditions: SPR
T1 construct: made in house; host or cells: mammalian cells
T1 sequence (Q61503 29-551 limits assumed): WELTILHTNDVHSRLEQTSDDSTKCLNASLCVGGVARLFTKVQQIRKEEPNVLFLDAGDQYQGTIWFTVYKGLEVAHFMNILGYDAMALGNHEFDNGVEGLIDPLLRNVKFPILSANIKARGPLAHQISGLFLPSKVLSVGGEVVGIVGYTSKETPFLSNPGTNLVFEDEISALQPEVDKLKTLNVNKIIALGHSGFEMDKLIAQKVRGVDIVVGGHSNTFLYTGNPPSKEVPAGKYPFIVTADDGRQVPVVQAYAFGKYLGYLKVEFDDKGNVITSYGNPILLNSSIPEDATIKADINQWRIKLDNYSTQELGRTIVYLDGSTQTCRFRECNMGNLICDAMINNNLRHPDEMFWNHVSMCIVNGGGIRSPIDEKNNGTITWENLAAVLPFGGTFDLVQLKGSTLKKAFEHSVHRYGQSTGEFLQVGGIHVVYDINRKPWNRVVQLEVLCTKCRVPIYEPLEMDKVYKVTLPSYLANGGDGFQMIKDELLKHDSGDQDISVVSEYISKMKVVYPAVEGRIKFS
Procedure: (§1) A ProteOn XPR36 instrument was used to characterize binding of MEDI9447 to human, murine, and cynomolgus CD73 ECD. MEDI9447 was affinity-captured using an anti-human Fc antibody. CD73 ECD was in the mobile phase. The association and dissociation of CD73 to MEDI9447 could be accurately described with the Langmuir 1:1 model.
(§2) The affinity of enhanced anti-CD73 antibodies (in IgG1-TM format) to human, murine, and cynomolgus CD73 was determined by flow cytometry and surface plasmon resonsance (SPR) (Table 13). The enhanced antibodies had pM affinity to cellular and recombinant CD73 from the three species.

[2] = test system: Cynomolgus CD73 ECD; experiment: Surface plasmon resonance (ProteOn), cynomolgus CD73; type: binding; conditions: SPR
Procedure: as §1, §2

[3] = biological target: T2, surface-expressed CD73, NCI-H322 cells (Homo sapiens, UniProt P21589); experiment: Cell-based inhibition of 5′ ectonucleotidase (CD73-catalyzed hydrolysis of AMP); conditions: CD73-expressing NSCLC cells, 200 μM AMP, 24 hours
T2 construct: In a cell-based assay of surface-expressed CD73; endogenous in cells; host or cells: NCI-H322
T2 sequence (P21589 27-549): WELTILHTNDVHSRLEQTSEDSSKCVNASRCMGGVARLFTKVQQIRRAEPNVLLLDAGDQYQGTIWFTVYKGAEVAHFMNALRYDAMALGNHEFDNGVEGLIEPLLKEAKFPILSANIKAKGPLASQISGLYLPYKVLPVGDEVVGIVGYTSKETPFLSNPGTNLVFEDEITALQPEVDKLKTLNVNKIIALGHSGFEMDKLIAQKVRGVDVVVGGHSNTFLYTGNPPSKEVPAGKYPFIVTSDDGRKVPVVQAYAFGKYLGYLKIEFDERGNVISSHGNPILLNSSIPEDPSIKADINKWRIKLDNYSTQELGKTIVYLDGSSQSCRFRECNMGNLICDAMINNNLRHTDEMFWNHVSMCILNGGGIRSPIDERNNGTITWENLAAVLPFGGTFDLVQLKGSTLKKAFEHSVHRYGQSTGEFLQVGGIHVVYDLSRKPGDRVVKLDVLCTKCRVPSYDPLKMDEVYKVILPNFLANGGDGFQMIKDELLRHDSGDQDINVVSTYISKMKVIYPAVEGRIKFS
Procedure: In this study, the functional activity of MEDI9447 was determined in an in vitro assay that measured the CD73-catalyzed hydrolysis of AMP using a human non-small cell carcinoma cell line, NCI-H322. Formulation of MEDI9447 was prepared by diluting its stock solution in serum-free RPMI medium to a final concentration of 1 μM. Formulation of R347 was prepared by diluting its stock solution in RPMI to a final concentration of 1 μM.
NCI-H322 cells were centrifuged for 5 minutes at 1500 rpm. The supernatant was removed and replaced with serum-free RPMI medium. The cell suspension was counted using the VI-CELL (Beckman, Coulter) cell counter. The cells were plated into 96-well plates at a cell density of 10,000 cells per 100 μLs per well. […], of 4× concentrated AMP (200 μM) was added. […] Cellular enzyme inhibition of 5′ ectonucleotidase was measured on a multilabel reader, the Perkin-Elmer Envision Workstation. The samples were analyzed using Prism Software.
The results depicted in FIG. 3 were obtained using CD73-expressing NSCLC cells that were plated into 96-well non-tissue culture treated plates (Falcon 3788) at 10,000 cells per well in 100 μL of RPMI medium without additives. […] CELLTITER-GLO® reagent (Promega) was added 1:1 and cellular CD73 enzyme AMP phosphorylase activity was determined by measuring ATP levels using the Envision luminescence plate reader (Perkin Elmer). […]

## MEDI9447: IgG1 with CD730010-derived VL of SEQ ID NO: 68 and VH of SEQ ID NO: 82
[1]
  ka: 2.41e+06 M⁻¹ s⁻¹
  kd: 2.32e-06 s⁻¹
[2]
  ka: 2.71e+06 M⁻¹ s⁻¹
  kd: 1.76e-05 s⁻¹
[3]
  conversion of adenosine monophosphate to adenosine: reduced in a dose-dependent manner
